In patent US20230167185A1 (STRIKE PHARMA, published 2023):

Columns and labels:
[1] = biological target: T1, Human CD40 Fc chimera (R&D Systems #1493-CDB) (human, UniProt P25942 21-193); assay: SPR, captured IgG2, SCK, 1:1 model; apparent KD (appKD), dimeric antigen
T1 construct: also called hCD40-Fc

[2] = biological target: T2, Cynomolgus CD40 Fc chimera (R&D Systems #9660-CD) (cynomolgus, UniProt G7PG38 21-193); assay: as above
T2 construct: range 21-193; also called cCD40-Fc

[3] = biological target: T3, Biotinylated human CD40 (AcroBiosystems #CD0-H82E8) (human, UniProt P25942 21-193); assay: SPR, captured IgG2, SCK, 1:1 model
T3 construct: also called hCD40-avi; Human CD40-avi; not shown: C-terminal Avi-tag
T3 sequence (P25942 21-193): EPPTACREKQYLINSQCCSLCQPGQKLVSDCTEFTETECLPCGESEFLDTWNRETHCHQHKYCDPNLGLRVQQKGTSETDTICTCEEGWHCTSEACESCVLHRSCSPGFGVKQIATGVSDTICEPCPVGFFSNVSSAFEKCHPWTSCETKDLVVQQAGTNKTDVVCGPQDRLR

[4] = biological target: T4, Mouse CD40 (AcroBiosystems #TN5-M52H8) (mouse, UniProt P27512 24-193); assay: SPR, captured IgG2, single injection of mCD40
T4 construct: range 24-193; also called mCD40
T4 sequence (P27512 24-193 limits assumed): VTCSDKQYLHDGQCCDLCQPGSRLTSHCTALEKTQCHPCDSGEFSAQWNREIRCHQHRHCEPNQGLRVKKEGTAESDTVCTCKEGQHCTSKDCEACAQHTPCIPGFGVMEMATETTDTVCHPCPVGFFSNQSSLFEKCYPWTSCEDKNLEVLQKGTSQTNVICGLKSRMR

[5] = biological target: T1, Human CD40 Fc chimera (R&D Systems …); assay: SPR, captured IgG2, SCK, 1:1 model, dimeric antigen
[6] = biological target: T5, caCD40-Fc (Sino Biological #70105-D02H) (canine, UniProt Q7YRL5 21-194); assay: SPR, captured IgG2, caCD40-Fc 0.16-100 nM, SCK
T5 construct: also called Canine CD40-Fc; canine CD40; not shown: Fc part of the bought fusion
T5 sequence (looked up): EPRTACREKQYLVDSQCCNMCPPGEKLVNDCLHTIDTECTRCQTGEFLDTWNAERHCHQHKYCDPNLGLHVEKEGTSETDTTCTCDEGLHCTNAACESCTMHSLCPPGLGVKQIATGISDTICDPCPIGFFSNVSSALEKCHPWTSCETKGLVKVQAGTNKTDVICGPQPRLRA

[7] = biological target: T2, Cynomolgus CD40 Fc chimera (R&D Systems …); assay: SPR, captured IgG2, SCK, 1:1 model, dimeric antigen
[8] = biological target: human CD40 on cells (CD19+ cells of PBMC; monocyte-derived dendritic cells) (human, UniProt P25942 21-277); assay: cell-based or functional assay
Sequence of human CD40 on cells (CD19+ cells of PBMC; monocyte-derived dendritic cells) (P25942 21-277 limits assumed): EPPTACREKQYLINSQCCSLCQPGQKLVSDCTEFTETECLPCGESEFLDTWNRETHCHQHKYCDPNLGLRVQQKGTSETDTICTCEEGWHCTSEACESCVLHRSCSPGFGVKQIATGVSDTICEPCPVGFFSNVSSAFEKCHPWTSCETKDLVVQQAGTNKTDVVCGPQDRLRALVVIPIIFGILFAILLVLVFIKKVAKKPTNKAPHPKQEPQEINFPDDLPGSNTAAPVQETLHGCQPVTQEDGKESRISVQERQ

T1 sequence (P25942 21-193, stated change not applied): as the sequence (P25942 21-193) above
T2 sequence (G7PG38 entry or part of it mutant): as the sequence (P25942 21-193) above, with G43S, H56R, R70Q, W89L, A95S, L101P, S106L, H142R, L172Q counted along it

B1: Y-SM083-B8 (antibody, V domains shown)
VH: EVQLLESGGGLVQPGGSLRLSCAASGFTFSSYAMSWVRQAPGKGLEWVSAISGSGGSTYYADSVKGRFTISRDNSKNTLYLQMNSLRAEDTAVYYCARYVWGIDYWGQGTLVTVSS
VL: DIQMTQSPSSLSASVGDRVTITCRASQSISSYLNWYQQKPGKAPKLLIYAASSLQSGVPSRFSGSGSGTDFTLTISSLQPEDFATYYCQQGYGYPPFTFGQGTKLEIK
Question: How did the Kd [1] turn out when B1 was run?
Answer: Its Kd is 13 nM.

Question: And the Kd [2]?
Answer: Its Kd is 13 nM.

Question: What about the Kd [3] of the same binder?
Answer: The Kd was 15 nM.

Question: Does B1 bind [4]?
Answer: Result: no binding (tested: 80 nM)

Question: And the koff [5]?
Answer: The koff was 0.0015 s⁻¹.

Question: What about the kon [5] of the same binder?
Answer: Its kon is 120000 M⁻¹ s⁻¹.

B2: Y-SM083-A9 (antibody, human IgG2, kappa, V domains shown)
VH: EVQLLESGGGLVQPGGSLRLSCAASGFTFSSYAMSWVRQAPGKGLEWVSGISGYSGSTYYADSVKGRFTISRDNSKNTLYLQMNSLRAEDTAVYYCARYYSYYGYYYFDYWGQGTLVTVSS
VL: DIQMTQSPSSLSASVGDRVTITCRASQSISSYLNWYQQKPGKAPKLLIYAASSLQSGVPSRFSGSGSGTDFTLTISSLQPEDFATYYCQQGYPYPFTFGQGTKLEIKR
notes: also called A9 antibody; SP9
Question: For B2, which Kd [1] is on record?
Answer: The Kd was 5.1 nM.

Question: And the Kd [2]?
Answer: The Kd was 4.5 nM.

Question: What about the Kd [3] of the same binder?
Answer: Its Kd is 37 nM.

Question: And the koff [3]?
Answer: Its koff is 0.0061 s⁻¹.

Question: What about the kon [3] of the same binder?
Answer: Its kon is 170000 M⁻¹ s⁻¹.

Question: Does B2 bind [4]?
Answer: Result: no binding (tested: 80 nM)

Question: Does B2 bind [6]?
Answer: Result: no binding (tested: 100 nM)

Question: And the koff [5]?
Answer: The koff was 0.0016 s⁻¹.

Question: And the kon [5]?
Answer: Its kon is 310000 M⁻¹ s⁻¹.

Question: And the koff [7]?
Answer: The koff was 0.0022 s⁻¹.

Question: What about the kon [7] of the same binder?
Answer: Its kon is 500000 M⁻¹ s⁻¹.

B3: X-SM083-bi-23 (bispecific antibody, human IgG2, kappa)
heavy: EVQLLESGGGLVQPGGSLRLSCAASGFTFSSYAMSWVRQAPGKGLEWVSGISGYSGSTYYADSVKGRFTISRDNSKNTLYLQMNSLRAEDTAVYYCARYYSYYGYYYFDYWGQGTLVTVSSASTKGPSVFPLAPCSRSTSESTAALGCLVKDYFPEPVTVSWNSGALTSGVHTFPAVLQSSGLYSLSSVVTVPSSNFGTQTYTCNVDHKPSNTKVDKTVERKCCVECPPCPAPPVAGPSVFLFPPKPKDTLMISRTPEVTCVVVDVSHEDPEVQFNWYVDGVEVHNAKTKPREEQFNSTFRVVSVLTVVHQDWLNGKEYKCKVSNKGLPAPIEKTISKTKGQPREPQVYTLPPSREEMTKNQVSLTCLVKGFYPSDIAVEWESNGQPENNYKTTPPMLDSDGSFFLYSKLTVDKSRWQQGNVFSCSVMHEALHNHYTQKSLSLSPGKGGGGSGGGGSEVQLLESGGGLVQPGGSLRLSCAASGFTFSNYWMSWVRQAPGKGLEWVSGISGNGGYTYFADSVKDRFTISRDNSKNTLYLQMNSLRAEDTAVYYCAGGDGSGWSFWGQGTLVTVSSGGGGSGGGGSGGGGSGGGGSQSVLTQPPSASGTPGQRVTISCTGSSSNIGAGYDVHWYQQLPGTAPKLLIYGNNNRPSGVPDRFSGSKSGTSASLAISGLRSEDEADYYCAAWDDSLSGRVFGGGTKLTVL
light: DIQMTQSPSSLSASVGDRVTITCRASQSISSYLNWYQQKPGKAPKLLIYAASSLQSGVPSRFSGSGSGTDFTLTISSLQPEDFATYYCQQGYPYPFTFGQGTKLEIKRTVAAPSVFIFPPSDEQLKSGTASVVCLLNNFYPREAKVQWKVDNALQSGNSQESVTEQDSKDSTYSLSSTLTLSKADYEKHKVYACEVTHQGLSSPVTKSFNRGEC
Question: Which “agonistic activity relative to the parental antibody SP9 (A9) (IL-12 production by MoDCs)” value [8] does the source give for B3 here?
Answer: Its value is 92%.
